Columns and labels:
[1] = target: GFP-Tus-His6 fusion protein (green fluorescent protein fused to E. coli Tus E47Q with a C-terminal six-histidine tag) (E. coli) (UniProt P16525); assay: protein microarray, fluorescence scan; fusion protein expressed in situ and captured on the spotted plasmid with wild-type Ter site
[2] = target: GFP-Tus-His6 fusion protein (green fluorescent protein fused to E. coli Tus E47Q with a C-terminal six-histidine tag) (E. coli) (UniProt P16525); assay: protein microarray, fluorescence scan; fusion protein expressed in situ and captured on the spotted plasmid with mutant Ter site (SEQ ID NO: 12)

Cy3 Signal Intensity (Background subtracted) (arbitrary units) [1]: 20600
Cy5 Signal Intensity (Background subtracted) (arbitrary units) [1]: 14000
Cy3 Signal Intensity (Background subtracted) (arbitrary units) [2]: 10900
Cy5 Signal Intensity (Background subtracted) (arbitrary units) [2]: 4740
Substance: monoclonal antibody to the poly-his tag (Sigma-Aldrich), labeled with Cy3 or Cy5

— patent US20070087356A1
